Measured values reported in publication PMC10732425.

Columns and labels:
[1] = biological target: RhlR:mBTL;PqsE (Pseudomonas aeruginosa (PA14?);Pseudomonas aeruginosa (PA14?)) (UniProt P54292+A0A0H2Z6F6); assay: EMSA; conditions: […] (17 of 20 uL): 200 mM KCl, 50 mM Tris-HCl pH 7.5, 250 ug/mL BSA, 50 mM NaCl, 5 nM EDTA, 5 uM MgCl2, 5 uM DTT ([…], RT 15 min
[2] = biological target: T1, RhlR:mBTL (Pseudomonas aeruginosa (PA14?)) (UniProt P54292); assay: EMSA; conditions: […] (17 of 20 uL): 200 mM KCl, 50 mM Tris-HCl pH 7.5, 250 ug/mL BSA, 50 mM NaCl, 5 nM EDTA, 5 uM MgCl2, 5 uM DTT ([…], RT 15 min
T1 sequence: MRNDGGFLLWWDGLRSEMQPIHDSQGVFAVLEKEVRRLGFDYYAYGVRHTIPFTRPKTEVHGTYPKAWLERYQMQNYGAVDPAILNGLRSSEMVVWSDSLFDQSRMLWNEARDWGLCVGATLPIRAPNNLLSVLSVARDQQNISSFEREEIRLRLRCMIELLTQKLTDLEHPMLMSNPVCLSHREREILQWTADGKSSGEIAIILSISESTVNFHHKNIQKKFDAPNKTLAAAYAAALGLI

Sequence	binding [1]	binding [2]
TGGATGGTCATGTCTGCCCGCGAGAGGGGCTGGATATCGTGTTGACGTTCAAGAAGGTGCATTGCCCTTTCATCCGTGAGAGAGAGTCGGGAGCCGGCGACACTAGGAGTCGGGCCGGGCGCGGACATTGATCCATGACAGGTGGGTATCTTCCCCTGCCAATTCTGGTAGGTGGGGTGCAGGTGTTCGCGCGGAAAAGTCGAACCCGCGCCTACCCCAG (double strand) [hcnA promoter fragment]	binds	–
TATGGCGTGTCGGGAGAGATCCGCAGTCCTTGGCGGCAGGCGATGCGCAGGCAGGAAGGACGCATCGTTCAGCCAATCTACGCCGTCGACCGGGCGCGACCACTGCTAGAGTTCGCAGGAGGGCTACAGGGGTGTCCTGGCACTGGCGATGCATGGCCCGGTGCCGGTCTATGGCAGCCGCCTGCCGGCCCACTCGTTCGATTGTTACGCTGTCTGTAAT (double strand) [lecB promoter fragment]	binds	–
GGGGCTTGTGTGGGTCTTGCAGATCGGCCTGCGCAAACGATTGGCGTCCGTGTTCACGCGTAGCCGATGAACACTTTTTAGCCAATTCGAAAGCTAACGGTAACTGCCAGATTTCACAGGACGGGCGGTCGCCTGCGCATAAGCCCCTGCCCGCCCGCGATAAGGCGTGCCAGAGCGGCCGGCGGGGAACAGCGAGGGGTTGGCGGAAAAGGCATGAAAA (double strand) [rhlA promoter fragment]	binds	binds
